Results on one substance are retold here after PMC4417174.

The data set relates to PU.1ΔN167 (ETS domain) (murine). Put plainly: DMS footprinting. The conditions noted are these: saturating protein; Footprinting: 10 mM Tris-HCl pH 7.4, 150 mM NaCl, 0.1 mM EDTA, 0.5 g/l BSA, 0.1 g/l salmon sperm DNA; EMSA: 12% PAGE, 1x TBE, 0.1-10 uM protein; DLS: PBS, 25 C.

“PU.1 high-affinity site, 206-bp footprinting fragment” gave a binding signal (% protection of core guanines vs unbound) of 90.
